# B1: TB001: Gal3-targeted Gal3-INSR blocking anti-Gal3 antibody; IMT001-4 used with human IgG4 isotype control (antibody, V domains shown)
# VH: QVQLVQSGSELKKPGASVKVSCKASGYTFTNYGMNWVRQAPGQGLKWMGWINTNTGEPTYVEEFTGRFVFSLETSVSTAYLQISSLKAEDTAVYFCAPYDNFFAYWGQGTTVTVSS
# VL: DIVLTQSPLSLPVTPGEPASISCRSSKSLLYKDGKTYLNWFLQKPGQSPQLLIYLMSTHASGVPDRFSGSGSGTDFTLKISRVEAEDVGVYYCQQLVDYPLTFGGGTKLEIK
# System: high-fat diet fed diabetic C57BL6J mice
# Assay: High-fat diet fed mouse model of type II diabetes
# Assay type: in vivo
# Details: HFD-fed mice; for liver steatosis (H&E stained liver sections): 10 mg/kg
# Description: To evaluate whether Gal3-INSR blockade by Gal3-targeted antibodies functionally impacted diabetes biology, a mouse model of type II diabetes was employed. Male C57BL6J mice were purchased from Jackson Lab and fed with high fat diet (HFD, 60% kcal from fat, Research Diet, Catalog #12492i) starting from 7-week old for 8 weeks, 10 or 16 weeks. Age-matched male C57BL6J mice fed with standard chow diet were used as control mice. […] Mice were fed with standard chow diet or HFD ad libitum except when fasted as indicated in the experiments. Glucose tolerance test (GTT) and insulin tolerance test (ITT) were done at 15 weeks and 16 weeks old (8 weeks and 9 weeks after HFD), respectively, to confirm the insulin resistant and glucose intolerant phenotype. For GTT, mice were fasted for 6 hours by transferring mice to clean cage with no food or faeces but with drinking water and then injected with 2 g/kg glucose (Sigma) and blood was drawn to measure glucose levels at 0, 15, 30, 60, 90, and 120 minutes after glucose injection. For ITT, mice were fasted for 6 hours, and then injected with 0.75 IU/kg body weight of Humalin-R (Eli Lilly) intraperitoneally. Blood from the tail was measured for glucose content using HemoCue Glucose 201 Analyzer at 0, 15, 30, 45, 60 minutes. Based on area under the curve (AUC) from ITT, HFD fed mice were randomized into two groups: human IgG4 isotype group and IMT001-4 treated group. At 17 weeks of age, mice were given antibody treatments by intraperitoneal injection twice a week for 5 doses before ITT and GTT were done at 19 weeks old and 20 weeks old. Human IgG4 isotype and IMT001-4 were dosed at 10 mg/kg with 100 μl/mouse and BM was dosed at […] with 100 μl/mouse. Treatments continued until the mice were sacked at 21 weeks old. The mice body weight was monitored one week after the mice arrived at the facility. Body weight was measured once a week using a balance. Mouse blood was collected using cardiac puncture. Liver, gastrocnemius muscle, and posterior subcutaneous white adipose fat were collected and weighed.
# To further evaluate the ability of IMT001-4 to impact the pathological sequalae of diabetes, liver sections from animals treated as in FIGS. 3-5 were examined for signs of fat accumulation, e.g., steatosis. Briefly, liver specimens were fixed in 4% paraformaldehyde for 24 hours, placed in 70% EtOH for 3 days, embedded into paraffin and 10 μm sections were cut and mounted to glass slides and stained with hematoxylin and eosin and visualized on a Revolve microscope at 40× magnification. Images were evaluated by ImageJ to quantitate the extent of steatosis.
# To further characterize the liver disease observed in histological samples, serum markers of liver dysfunction were evaluated in animals treated as above […]. Briefly, mouse plasma samples were obtained from whole blood sample in lithium heparin collection tubes. 100 μl of serum was dispensed into the rotor of a VetScan VS2 Blood Chemistry Analyzer (Abaxis) through the sample port. ALT levels were determined as per the manufacturer's specification. […] Accordingly, the Gal3-targeted Gal3-INSR blocking antibody, IMT001-4, has utility in reducing serum liver enzymes.
# [1] = 10 mg/kg i.p. twice a week, vs isotype control
molecule,measurement,setting,value
B1,weight gain,"10 mg/kg i.p. twice a week, 19 day study",did not gain any appreciable weight
same,liver steatosis (H&E stained liver sections),10 mg/kg i.p. twice a week,negligible levels of steatosis
same,liver steatosis (H&E stained liver sections),"10 mg/kg i.p. twice a week, listed as IMT001-4 (TB001)",absence thereof
same,glucose reduction in response to insulin challenge (insulin tolerance test),[1],glucose clearance indistinguishable from non-diabetic mice fed a normal diet
same,response to glucose challenge (glucose tolerance test),[1],cleared glucose significantly more rapidly
same,serum liver enzyme ALT levels,relative to HFD-fed isotype-control treated mice,significantly decreased
same,liver steatosis by image quantification (ImageJ),relative to isotype-control treated animals,complete reversion of disease state
